Results on three molecules are retold here after patent US12365732 (23ANDME, dated 2025).

For one assay, the target named is T1, hu-CD96 Fc (human, biotinylated in Table 16).
T1 construct: also called biotinylated hu-CD96-Fc
The assay is described as follows: SPR (Biacore), Fab.

Assay [1] deals with T2, mo-CD96 (soluble, Table 5) (mouse, UniProt Q3U0X8 22-536, limits assumed).
T2 sequence (looked up): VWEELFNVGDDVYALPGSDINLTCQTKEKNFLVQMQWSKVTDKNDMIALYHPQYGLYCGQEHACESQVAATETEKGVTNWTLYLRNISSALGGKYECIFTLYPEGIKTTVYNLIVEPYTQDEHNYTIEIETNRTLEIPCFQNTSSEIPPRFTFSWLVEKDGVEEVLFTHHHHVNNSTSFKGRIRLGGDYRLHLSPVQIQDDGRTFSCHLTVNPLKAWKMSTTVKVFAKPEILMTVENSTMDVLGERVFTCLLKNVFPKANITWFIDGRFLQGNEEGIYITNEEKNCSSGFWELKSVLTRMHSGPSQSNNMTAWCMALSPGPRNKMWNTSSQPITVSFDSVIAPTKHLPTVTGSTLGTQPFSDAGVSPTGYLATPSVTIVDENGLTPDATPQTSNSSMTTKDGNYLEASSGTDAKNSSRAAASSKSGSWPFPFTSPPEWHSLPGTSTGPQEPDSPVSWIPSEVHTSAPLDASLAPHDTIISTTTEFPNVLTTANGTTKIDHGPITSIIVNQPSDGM
As to the kind of experiment: SPR 25C, IgG on Protein A, CD96 analyte. As to the method:
(§1) SPR measurement with a BIACORE™ 8K instrument was performed to determine the monovalent binding affinity of mAb1.v7 and h10G1 IgG to hu-CD96, cy-CD96, and mo-CD96. Briefly, antibodies were diluted at 0.5 µg/mL in HBS-P buffer (0.01 M HEPES pH 7.4, 0.15 M NaCl, 0.005% Surfactant P20) and applied to the Protein A chip at 30 µL/min flow rate for 60 s in flow cell 2 (FC2). Then 3-fold serial dilutions of hu-CD96, cy-CD96, or mo-CD96 in HBS-P buffer (0.01 M HEPES pH 7.4, 0.15 M NaCl, 0.005% surfactant P20) from (0.4 nM) to high (100 nM) were injected (flow rate: 30 µL/min) at 25° C. to both flow cell 1 (FC1) and flow cell 2 (FC2). The sensorgram was recorded and subject to reference and buffer subtraction before evaluating by BIACORE® 8K Evaluation Software (version 1.1.1.7442). Association rates ($kon$) and dissociation rates ($koff$) were calculated using a simple one-to-one Langmuir binding model.

In assay [2] the target is T3, hu-CD96 (soluble, isoform 2 extracellular domain) (human, UniProt P40200 22-516, biotinylated in Octet and blocking ELISA).
T3 construct: the assays name only hu-CD96; also called hCD96; biotinylated hu-CD96
T3 sequence: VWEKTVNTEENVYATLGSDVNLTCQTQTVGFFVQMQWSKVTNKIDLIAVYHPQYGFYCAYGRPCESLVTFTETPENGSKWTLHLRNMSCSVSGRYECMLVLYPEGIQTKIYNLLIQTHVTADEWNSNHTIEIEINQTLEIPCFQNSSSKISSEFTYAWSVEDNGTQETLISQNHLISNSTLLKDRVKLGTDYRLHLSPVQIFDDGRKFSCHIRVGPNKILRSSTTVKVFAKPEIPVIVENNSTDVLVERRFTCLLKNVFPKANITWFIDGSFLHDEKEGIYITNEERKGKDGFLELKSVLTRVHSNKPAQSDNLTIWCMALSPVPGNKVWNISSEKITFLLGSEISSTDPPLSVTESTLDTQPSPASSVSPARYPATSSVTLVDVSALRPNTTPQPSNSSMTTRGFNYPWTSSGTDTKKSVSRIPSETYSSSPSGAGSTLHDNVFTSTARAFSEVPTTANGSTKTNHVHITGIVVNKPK
The assay is described as follows: SPR 25C, IgG on Protein A, CD96 analyte. As to the method:
as §1

Assay [3] has as its target T4, cy-CD96 (soluble, extracellular domain) (cynomolgus monkey, UniProt P40200 22-516 (human entry), biotinylated in Octet and blocking ELISA).
T4 construct: the assays name only cy-CD96; also called biotinylated cy-CD96
T4 chain: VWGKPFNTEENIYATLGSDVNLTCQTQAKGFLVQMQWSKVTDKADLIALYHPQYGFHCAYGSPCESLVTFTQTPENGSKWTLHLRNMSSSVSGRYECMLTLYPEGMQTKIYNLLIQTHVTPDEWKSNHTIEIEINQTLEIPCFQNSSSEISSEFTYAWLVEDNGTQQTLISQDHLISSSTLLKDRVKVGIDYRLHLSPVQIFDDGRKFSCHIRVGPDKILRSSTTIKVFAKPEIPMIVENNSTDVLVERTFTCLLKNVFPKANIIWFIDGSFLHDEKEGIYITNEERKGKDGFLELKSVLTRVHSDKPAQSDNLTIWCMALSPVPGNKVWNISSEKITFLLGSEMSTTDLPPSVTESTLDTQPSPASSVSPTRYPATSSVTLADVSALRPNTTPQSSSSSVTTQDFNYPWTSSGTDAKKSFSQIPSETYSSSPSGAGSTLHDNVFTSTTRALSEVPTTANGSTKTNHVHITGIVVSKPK
The assay is described as follows: SPR 25C, IgG on Protein A, CD96 analyte. As to the method: as §1

B1: mAb1.v7 Fab (Fab, V domains shown)
VH: EVQLVQSGAEVKKPGASVKVSCKASGFTFTNNWMHWVRQAPGQGLEWIGMIHPNSGITNINEKFKNRVTMTTDTSTSTAYMELRSLRSEDTAVYYCRSDGTYEGYFDYWGQGTLVTVSS
VL: DIQLTQSPSSLSASVGDRVTITCKASQNVGTAIVWYQQKPGKAPKVLIYSASTRYTGVPSRFSGSGSGTDFTLTISSLQPEDFATYYCQQYSSSPLTFGQGTKVEIK
A word on the Kd: it is the constant that tells how readily two partners part at equilibrium. The low end stands for higher affinity, the high end for lower affinity. In general, koff refers to the rate constant with which the complex falls apart. A lower koff goes with a long-lived complex. Usually kon stands for a measure of how fast the partners come together. In the assay with hu-CD96 Fc, B1 had a Kd of 44.6 nM, a koff of 0.000817 s⁻¹ and a kon of 18300 M⁻¹ s⁻¹.

B2: mAb1.v7 IgG (humanized 12F8) (antibody, V domains shown)
VH: EVQLVQSGAEVKKPGASVKVSCKASGFTFTNNWMHWVRQAPGQGLEWIGMIHPNSGITNINEKFKNRVTMTTDTSTSTAYMELRSLRSEDTAVYYCRSDGTYEGYFDYWGQGTLVTVSS
VL: DIQLTQSPSSLSASVGDRVTITCKASQNVGTAIVWYQQKPGKAPKVLIYSASTRYTGVPSRFSGSGSGTDFTLTISSLQPEDFATYYCQQYSSSPLTFGQGTKVEIKG
notes: human IgG1 N297G
For B2, the Kd in assay [1] is about 386 nM; in assay [2], 4.49 nM.

B3: h10G1 IgG (humanized 10G1) (antibody, V domains shown)
VH: EIQLVQSGSELKKPGASVKVSCKASGYPFTTYGMSWVRQAPGQGLEWMGWINTDSGVPTYADDFKGRFVFSLDTSVSTAYLQISSLKAEDTAVYFCARNIYYGWGNFDYWGQGTLVTVSS
VL: EIVMTQSPDFQSVTPKEKVTITCRASQDIYRNLHWYQQKPDQTPKLLIKHASDSISGIPSRFSGSGSGTDFTLTINSLEAEDAAAYYCLQGYSMPYTFGGGTKVEIKG
notes: human IgG1 N297G
B3: the binding result in assay [1] was “no binding (tested: 100 nM highest)”. Moreover, the Kd in assay [3] was found to be 0.74 nM. Also, in assay [2], the “apparent Kd (pooled screen)” value came to 1.17 nM.
